Results from publication doi:10.1101/2025.02.09.637349 (bioRxiv, 2025).

Target: the molecule itself
Assay: cryo-EM structure

B1: Thermochromatium tepidum form-IAq RuBisCO large subunit (RbcL) (natural protein, UniProt A0A6I6DX30 1-472, looked up)
chain: MAKTYSAGVKEYRETYWMPNYTPKDTDILACFKITPQPGVPREEAAAAVAAESSTGTWTTVWTDLLTDLDYYKGRAYAIEDVPGDDTCFYAFIAYPIDLFEEGSVVNVFTSLVGNVFGFKAVRALRLEDVRFPIAYVMTCNGPPHGIQVERDILNKYGRPLLGCTIKPKLGLSAKNYGRAVYECLRGGLDFTKDDENVNSQPFMRWRQRFDFVMEAIDKAERETGERKGHYLNVTAPTPEEMYKRAEYAKEIGAPIIMHDYITGGFCANTGLAQWCRNNGVLLHIHRAMHAVLDRNPHHGIHFRVLTKILRLSGGDHLHTGTVVGKLEGDRQATLGWIDLLRESYVKEDRSRGIFFDQDWGAMPGAFAVASGGIHVWHMPALVTIFGDDSVLQFGGGTLGHPWGNAAGACANRVALEACIEARNQGIPIEKEGKEVLTKAAAHSPELKIAMETWKEIKFEFDSVDKLDVAHK
For B1, the “stoichiometry N” value was 8.
